Measured values taken from US20200332005A1.

Biological target: N-terminal of CD73
Assay: plate binding assay, axis Binding activity (OD450) against Ab (µg/ml); panel Binding to N-terminal of CD73

MEDI-9447 (Medimmune) (antibody)
EC50 (read off the curve): 0.01 µg/mL
